Assay results from patent US20100150950A1, “HUMAN ANTIBODIES THAT BIND CD70 AND USES THEREOF” (Medarex, Inc., priority 2006, published 2010).

T1: CD70+ renal carcinoma 786-O cells (Homo sapiens, UniProt P32970)
T1 construct: natively expressing CD70+ human cancer cell line 786-0 cells; endogenous in cells; host or cells: 786-O (ATCC CRL-1932), A-498 (HTB-44), ACHN (CRL-1611), Caki-1 (HTB-46), Caki-2 (HTB-47)
T1 sequence (P32970 1-193): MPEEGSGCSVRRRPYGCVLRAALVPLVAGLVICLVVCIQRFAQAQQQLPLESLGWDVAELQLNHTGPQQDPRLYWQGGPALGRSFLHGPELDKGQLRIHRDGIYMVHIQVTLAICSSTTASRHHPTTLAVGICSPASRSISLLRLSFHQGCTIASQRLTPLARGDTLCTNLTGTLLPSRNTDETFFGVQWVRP

T2: CD70 expressed on the surface of 786-O renal cell carcinoma cells (Homo sapiens, UniProt P32970)
T2 construct: natively expressing CD70+ human cancer cell line 786-0 cells; endogenous in cells; host or cells: 786-O (ATCC CRL-1932), A-498 (HTB-44), ACHN (CRL-1611), Caki-1 (HTB-46), Caki-2 (HTB-47)
T2 sequence (P32970 1-193): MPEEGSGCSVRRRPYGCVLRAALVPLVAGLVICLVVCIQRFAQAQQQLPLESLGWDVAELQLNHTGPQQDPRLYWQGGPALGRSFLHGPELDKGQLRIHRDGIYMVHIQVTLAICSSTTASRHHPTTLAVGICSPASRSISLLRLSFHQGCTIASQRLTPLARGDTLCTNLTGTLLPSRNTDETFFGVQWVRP


Legend:
[1] = biological target: T1, CD70+ renal carcinoma 786-O cells; test: Blocking of mouse anti-CD70 antibody BU-69 binding; conditions: BU-69 1 μg/ml; 69A7 1, 5 or 10 μg/ml
Protocol: In this experiment, the HuMAb anti-CD70 antibody 69A7 was tested for its ability to block binding of a known mouse anti-CD70 antibody to CD70+renal carcinoma 786-O cells. 786-O cells were incubated with the mouse anti-CD70 antibody BU-69 (Ancell, Bayport, Minn.) at 1 μg/ml and the HuMAb 69A7 at 1, 5 or 10 μg/ml for 20 minutes on ice. IgG1 and IgG2 isotype control antibodies were used as negative controls. The cells were washed twice and binding was detected with a FITC-labeled anti-human IgG Ab. Flow cytometric analyses were performed using a FACSCalibur flow cytometry (Becton Dickinson, San Jose, Calif.).

[2] = test system: monkey rhesus CD70+ B lymphoma cell line LCL8664; test: FACS cross-reactivity with rhesus B lymphoma cells; assay type: binding; conditions: antibody 1 μg/ml
Protocol: FACS analysis was also employed to access the ability of the anti-CD70 antibody 69A7 cross reacting with the monkey rhesus CD70+B lymphoma cell line, LCL8664 (ATCC#: CRL-1805). Binding of the HuMAb 69A7 anti-CD70 human monoclonal antibody was assessed by incubating 1×10^5 cells with 69A7 at a concentration of 1 μg/ml. The cells were washed and binding was detected with a FITC-labeled anti-human IgG Ab. An isotype control antibody was used as a negative control. Flow cytometric analyses were performed using a FACSCalibur flow cytometry (Becton Dickinson, San Jose, Calif.).

[3] = biological target: T2, CD70 expressed on the surface of 786-O renal cell carcinoma cells; test: Flow cytometry binding to 786-O cells
Protocol: Anti-CD70 antibodies were tested for binding to renal cell carcinoma cells expressing CD70 on their cell surface by flow cytometry.
The renal cell carcinoma cell lines A-498 (ATCC Accession No. HTB-44), 786-O (ATCC Accession No. CRL-1932), ACHN (ATCC Accession No. CRL-1611), Caki-1 (ATCC Accession No. HTB-46) and Caki-2 (ATCC Accession No. HTB-47) were each tested for antibody binding. Binding of the HuMAb 2H5 anti-CD70 human monoclonal antibody was assessed by incubating 1×10^5 cells with 2H5 at a concentration of 1 μg/ml. The cells were washed and binding was detected with a FITC-labeled anti-human IgG Ab. Flow cytometric analyses were performed using a FACSCalibur flow cytometry (Becton Dickinson, San Jose, Calif.). The anti-CD70 monoclonal antibody 2H5 bound to the renal carcinoma cell lines A-498, 786-O, ACHN, Caki-1 and Caki-2.
The renal cell carcinoma cell lines 786-O and A-498 were tested for binding of the HuMAb anti-CD70 human monoclonal antibodies 2H5, 8B5, 10B4 and 18E7 at different concentrations. Binding of the anti-CD70 human monoclonal antibodies was assessed by incubating 5×10^5 cells with antibody at a starting concentration of 50 μg/ml and serially diluting the antibody at a 1:3 dilution. The cells were washed and binding was detected with a PE-labeled anti-human IgG Ab. Flow cytometric analyses were performed using a FACSCalibur flow cytometry (Becton Dickinson, San Jose, Calif.). The results are shown in FIG. 18A (786-O) and FIG. 18B (A-498). […]
Binding of the HuMAb 2H5 and 69A7 anti-CD70 human monoclonal antibodies to the renal cell carcinoma cell line 786-O was assessed by incubating 2×10^5 cells with either 2H5 or 69A7 at a concentration of 10 μg/ml. […] The cells were washed and binding was detected with a FITC-labeled anti-human IgG Ab. […]
The renal cell carcinoma cell line 786-O was tested for binding of the HuMAb anti-CD70 human monoclonal antibody 69A7 at different concentrations. Binding of the anti-CD70 human monoclonal antibodies was assessed by incubating 5×10^5 cells with antibody at a starting concentration of 10 μg/ml and serially diluting the antibody at a 1:3 dilution. The cells were washed and binding was detected with a PE-labeled anti-human IgG Ab. […]
The Daudi lymphoma cell line and 786-O renal carcinoma cell were further tested for antibody binding. Binding of the HuMAb 69A7 anti-CD70 human monoclonal antibody was assessed by incubating 2×10^5 cells with 69A7 at a concentration of 1 μg/ml. The cells were washed and binding was detected with a FITC-labeled anti-human IgG Ab. […] The anti-CD70 monoclonal antibody 69A7 bound to the Daudi lymphoma cell line and 786-O renal carcinoma cell line, as measured by the mean fluorescent intensity (MFI) of staining. […]

| blocking of mouse anti-CD70 antibody BU-69 binding [1] | binding to 786-O at different concentrations (MFI) ([3]; 1:3 serial dilution from 50 μg/ml (69A7: from 10 μg/ml)) | binding to 786-O cells ([3]; antibody 1 μg/ml, FITC-labeled anti-human IgG) | binding to 786-O cells ([3]; antibody 10 μg/ml) | Molecule | cross-reactivity with monkey CD70+ B lymphoma cells [2] | relative binding to 786-0 cells ([3]; 30 to 0.01 ug/ml, flow cytometry) |
| --- | --- | --- | --- | --- | --- | --- |
| blocks binding | concentration dependent | bound | bound | anti-CD70 human monoclonal antibody 69A7 (antibody, V domains shown, Human IgG from hybridoma; also called HuMAb 69A7; FITC-conjugated 69A7) VH: QVQLQESGPGLVKPSETLSLTCTVSGGSVSSDYYYWSWIRQPPGKGLEWLGYIYYSGSTNYNPSLKSRVTISVDTSKNQFSLKLRSVTTADTAVYYCARGDGDYGGNCFDYWGQGTLVTVSS VL: EIVLTQSPATLSLSPGERATLSCRASQSVSSYLAWYQQKPGQAPRLLIFDASNRATGIPARFSGSGSGTDFTLTISSLEPEDFAVYYCQQRSNWPLTFGGGTKVEIK | cross-reacts |  |
|  |  |  |  | 2H5 NF: 2H5 HuMAb lacking fucosyl residues, expressed in CHO cell line Ms704-PF (antibody, V domains shown) VH: QVQLVESGGGVVQPGRSLRLSCAASGFTFSSYIMHWVRQAPGKGLEWVAVISYDGRNKYYADSVKGRFTISRDNSKNTLYLQMNSLRAEDTAVYYCARDTDGYDFDYWGQGTLVTVSS VL: EIVLTQSPATLSLSPGERATLSCRASQSVSSYLAWYQQKPGQAPRLLIYDASNRATGIPARFSGSGSGTDFTLTISSLEPEDFAVYYCQQRTNWPLTFGGGTKVEIK |  | binds at lower concentration than 1F4 and 1F4 NF |
